Results taken from article PMC1368978, “Crystal structure of a DNA polymerase sliding clamp from a Gram-positive bacterium” (BMC Structural Biology, 2006).

Biological target: the molecule itself
Test: crystal structure; hanging drop, 20 mg/mL protein in Buffer A + 100 mM NaCl; 30% PEG 2000 MME, 100 mM sodium acetate pH 4.5, 200 mM ammonium sulfate, 20°C; space group P2(1), one dimer in the asymmetric unit; refined to 2.1 Å

B1: β subunit of the DNA polymerase III holoenzyme of Streptococcus pyogenes (natural protein)
chain: MIQFSINRTLFIHALNTTKRAISTKNAIPILSSIKIEVTSTGVTLTGSNGQISIENTIPVSNENAGLLITSPGAILLEASFFINIISSLPDISINVKEIEQHQVVLTSGKSEITLKGKDVDQYPRLQEVSTENPLILKTKLLKSIIAETAFAASLQESRPILTGVHIVLSNHKDFKAVATDSHRMSQRLITLDNTSADLMVVLPSKSLREFSAVFTDDIETVEVFFSPSQILFRSEHISFYTRLLEGNYPDTDRLLMTEFETEVVFNTQSLRHAMERAFLISNATQNGTVKLEITQNHISAHVNSPEVGKVNEDLDIVSQSGSDLTISFNPTYLIESLKAIKSETVKIHFLSPVRPFTLTPGDEEESFIQLITPVRTN
notes: β subunit (sliding clamp) of DNA polymerase III, Streptococcus pyogenes; residues up to Thr 377 are named in the model; A selenomethionine-derivatized form was also made and crystallized for phasing (MAD); also called S. pyogenes β subunit; S. pyogenes β clamp; source: E. coli BLR DE3 (plasmid pETSpdnaN), purified (ammonium sulfate cut, Fast Flow Q, EAH-Sepharose 4B, Mono Q)
stoichiometry N: 2
